Source: article PMC6329520, “Diversification of DNA binding specificities enabled SREBP transcription regulators to expand the repertoire of cellular functions that they govern in fungi”

T1: AfSrbA DBD (Aspergillus fumigatus, UniProt Q4WIN1 145-266)
T1 sequence: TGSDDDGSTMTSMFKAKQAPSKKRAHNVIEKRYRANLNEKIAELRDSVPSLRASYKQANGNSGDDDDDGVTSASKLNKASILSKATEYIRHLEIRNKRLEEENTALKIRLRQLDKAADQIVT

T2: CpHms1 DBD (Candida parapsilosis, UniProt G8B9T4 486-659)
T2 sequence: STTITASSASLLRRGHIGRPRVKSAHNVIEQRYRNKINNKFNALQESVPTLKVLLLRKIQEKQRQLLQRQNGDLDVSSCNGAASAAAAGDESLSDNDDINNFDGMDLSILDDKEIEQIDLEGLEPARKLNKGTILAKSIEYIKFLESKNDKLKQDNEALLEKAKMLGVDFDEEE

T3: CaCph2 DBD (Candida albicans, UniProt Q59RL7 197-302)
T3 sequence: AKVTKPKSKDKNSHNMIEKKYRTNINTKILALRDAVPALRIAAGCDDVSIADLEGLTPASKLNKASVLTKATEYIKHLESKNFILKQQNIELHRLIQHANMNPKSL

B1: non-palindromic site fragment (HMS1 cognate site) (dsDNA)
DNA 1: ACAAAAAAAAATCAGGCCATTTGTAATACT
DNA 2: AGTATTACAAATGGCCTGATTTTTTTTTGT

What was measured:
CaHms1 DBD [1] = target: T4, CaHms1 DBD (Candida albicans, UniProt A0A1D8PMZ4 463-685); experiment: competition; conditions: unlabeled competitor vs labeled N1; at least one order of magnitude; Standard EMSA buffer (composition by reference), 90 min, room temperature, 6% polyacrylamide gel in 0.5x TGE; pH and salt not given
AfSrbA DBD [2] = target: T1, AfSrbA DBD; experiment: competition; conditions: unlabeled competitor vs labeled N1; at least one order of magnitude; Standard EMSA buffer (composition by reference), 90 min, room temperature, 6% polyacrylamide gel in 0.5x TGE; pH and salt not given
CaHms1 DBD [3] = target: T4, CaHms1 DBD; experiment: EMSA; 0-100 nM protein; Standard EMSA buffer (composition by reference), 90 min, room temperature, 6% polyacrylamide gel in 0.5x TGE; pH and salt not given; conditions: protein: recombinant; tags: N-terminal 6xHis or 6xHis-MBP (primers: pLIC-H3); chain copies: 2; label: 32P
CpHms1 DBD = target: T2, CpHms1 DBD; experiment: as above; conditions: protein: recombinant; tags: N-terminal 6xHis or 6xHis-MBP (primers: pbRZ75); chain copies: 2; label: 32P
AfSrbA DBD [4] = target: T1, AfSrbA DBD; experiment: as above; conditions: protein: recombinant; tags: N-terminal 6xHis or 6xHis-MBP (primers: pLIC-H3); chain copies: 2; label: 32P
CaCph2 DBD = target: T3, CaCph2 DBD; experiment: competition; little if any discrimination from N3; Standard EMSA buffer (composition by reference), 90 min, room temperature, 6% polyacrylamide gel in 0.5x TGE; pH and salt not given; conditions: protein: recombinant; tags: N-terminal 6xHis or 6xHis-MBP (primers: pLIC-H3); chain copies: 2; label: 32P

Molecule	binding signal (fold weaker than N1) (CaHms1 DBD [1])	binding signal (fold weaker than N1) (AfSrbA DBD [2])	binding result (CaHms1 DBD [3])	binding result (CpHms1 DBD)	binding result (AfSrbA DBD [4])	binding result (CaCph2 DBD)
palindromic canonical E-box fragment	> 10	> 10	–	–	–	–
B1	–	–	binds	binds	binds	binds
